Experimental data from the supplement of paper PMC9170038.

Columns and labels:
MS2 coat protein [1] = assay: apparent KD of MS2 coat protein; designed switch direction (-1 OFF switch, 1 ON switch): 1; higher = weaker reporter binding; details: Eterna round: R98
Protocol: (§1)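 RNA-MaP: designed FMN/MS2 RNA switches (84 nt design region) are transcribed on-chip within common flanks and titrated with SNAP-549-labelled MS2 coat protein (about 1-3000 nM) in 100 mM Tris pH 7.5, 80 mM KCl, 4 mM MgCl2, without or with 200 uM FMN. Median apparent KD per design; activation ratio = KD,OFF / KD,ON.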

MS2 coat protein [2] = assay: apparent KD of MS2 coat protein; higher = weaker reporter binding; details: Eterna round: R101
Protocol: as §1

| Sequence | apparent KD of MS2 coat protein (MS2 coat protein [1]; input ligand: FMN 200 uM) [nM] | apparent KD of MS2 coat protein (MS2 coat protein [1]; input ligand: none) [nM] | apparent KD of MS2 coat protein (MS2 coat protein [2]; input ligand: FMN 200 uM) [nM] | apparent KD of MS2 coat protein (MS2 coat protein [2]; input ligand: none) [nM] |
| --- | --- | --- | --- | --- |
| GCCGUAAUAGCAGGAUAUGCUCCGGUUGCUCAUACAUGAGGAUCACCCAUGUCACGUGCGGUGGUGCAGAAGGGUUGAAGCGAU [Ausaso] | 122 | 465 | – | – |
| GCUUGCGACGCAGGAUAUGGGUGCCUGAACACGAGGAUCACCCGUGUAGAGGAAGCGAAAAGCUCUCAGAAGGGCGUCGCAGGC [United States 6 - Jieux - Same State NG 2] | 19.8 | 50.5 | – | – |
| GGAGACCUCACAGGAUAUGCUGGACUUUGUCCAGCAGAAGGGUGUUUAACAUGAGGAUCACCCAUGUAGGUCUCCAAAUUUAAU [Denovo 60] | 46 | 707 | – | – |
| GGUCCAUCAUGAGGAUAUGGCACCUUAUUUGUGCCAGAAGGCAUGUCAAUAGACAUGAGGAUCACCCAUGUAAUAAAUUGGACC [EliMod 3 - Jieux - Same State NG 1] | 54.1 | 642 | – | – |
| GGUCUGAUAUGAGGAUAUGCUCAGGAUAACUGAGCAGAAGGCAUGUGAAAACAUGAGGAUCACCCAUGUAUGAUCUACAGACCA [Same State NG1 - WT Aptamer 4D] | 22.7 | 55.6 | – | – |
| GUAGCAGCGGCGCCCUCGUAGACAUGAGGAUCACCCAUGUCGCAGGAUAUCAGAAGCGGAGCUGCUGAGAAGGGCGACAUAAGG [Quorus] (puzzle (switch architecture): Exclusion NG 3) | – | – | 13.8 | 7.25 |
| GUAGCAUACCGAGGAUAUUCAUACCAUAAAUGGACAUGAGGAUCACCCAUGUGGCGAAAGCCUUGGGAGAAGGCGGAAUGCUAC [EliMod 3 - Jieux - Same State NG 2] | 25.2 | 673 | – | – |
| GUAGCAUACCGAGGAUAUUCAUACUGGAAACAGACAUGAGGAUCACCCAUGUGGCGAAAGCCUUGGGAGAAGGCGGAAUGCUAC [EliMod 9 - Jieux - Same State NG 2] | 42.4 | 545 | – | – |
| GUAGCAUACGGAGGAUAUUCAUACCGGAAACGGACAUGAGGAUCACCCAUGUGGCGAAAGCCUUGGGAGAAGGCCGUAUGCUAC [#DoubleMagnetSystem - Mat - Same State NG 2 - JL Mod - D 61] (puzzle (switch architecture): Same State NG 2) | – | – | 8.06 | 187 |
| UCACUCACGUUAGGAUAUGGAUCGGAAAACGAUCCAGAAGGAACCUGCAAACACGAGGAUCACCCGUGUUCCAAUAACGAGUGA [SameSame 5 - Jieux - Same State NG 1] | 24.7 | 20.3 | – | – |
| UCGAAGAAGCAAGGAUAUCAAUAUUAGAAAAGAUAAACAUGAGGAUCACCCAUGUAAAUAUGGAGUGAGAAGGUGCAAUAAUUU [JR_SSNG2_Sub098] | 212 | 557 | – | – |
| UCGGUUUUCGCAGGAUAUGGAGGAUACUCCCACAUGAGCAUCAGCCAUGUCUGCAUGGAGGAAGGCCAGAAGGGCGAGAACCGA [United States 2 - Jieux - Same State NG 2] | 13.5 | 31.6 | – | – |
| UGAUAGGACAGAGGAUAUACGUGCUAGAGAUACUAGCAAAAUUUCCUCACAUGAGGAUCACCCAUGUAGAAGGCUGUCCUAUCU [#PyrimidineMS2Turnoff - Eli xng 2.01 rotated] (puzzle (switch architecture): Exclusion NG 2) | – | – | 533 | 16.5 |
| UGGUACUAGGGAGGAUAUGGGAAGAUACAUGAGGAUCACCCAUGUUUAAGAAUGCCGAGAGGCAACUAGAAGGCCCUAGUACCU (puzzle (switch architecture): Same State NG 2) | – | – | 18.9 | 437 |
| UUAUAAAAUAUAGGAUAUGGAAACAUGAGGAUCACCCAUGUAUGAUAAGAUAAAUUAUGAUAUAGCCAGAAGGAUACAAUAUAA [LRO010_SS NG 2] | 35.4 | 32.9 | – | – |
| UUGGACGUCGUAGGAUAUGUAGGAUAUUCCUACAUGAGGAUCACCCAUGUUGAAAUGGAAGAAGGACAGAAGGACGAUGUCCAU (puzzle (switch architecture): Same State NG 2) | – | – | 3.83 | 19.4 |
| UUUAAUAUUAUAGGAUAUGGAUACGAUACGUAUCCAGAAGGGUGAUUAUAAUAUAAUCUAUACAUGAGGAUCACCCAUGUUUAU [AtrosYaY8] (puzzle (switch architecture): Same State NG 1) | – | – | 84.8 | 205 |
| UUUACAUGAGGAUCACCCAUGUUUUGAAAGAUUGGUUUAGGUGAGGAUAUACAUGAUAAUGAAUUGUAGAAGGCACUGGGUACA [JR_SSNG3_Sub029] | 29.6 | 39.3 | – | – |
| UUUGGGAGCACAGGAUAUGGCACCUCGACGGCGCCAGAAGGGUGAUUCUGUUGGUGGCCACAUGAGGAUCACCCAUGUGCCUCC [Inerinusce] | 44.7 | 76 | – | – |
